# Reference: IntAct's records for PubMed 26040720
# B1: Reticulophagy regulator 1 (Homo sapiens), Q9H6L5-1 (parent)
# chain: MASPAPPEHAEEGCPAPAAEEQAPPSPPPPQASPAERQQQEEEAQEAGAAEGAGLQVEEAAGRAAAAVTWLLGEPVLWLGCRADELLSWKRPLRSLLGFVAANLLFWFLALTPWRVYHLISVMILGRVIMQIIKDMVLSRTRGAQLWRSLSESWEVINSKPDERPRLSHCIAESWMNFSIFLQEMSLFKQQSPGKFCLLVCSVCTFFTILGSYIPGVILSYLLLLCAFLCPLFKCNDIGQKIYSKIKSVLLKLDFGIGEYINQKKRERSEADKEKSHKDDSELDFSALCPKISLTVAAKELSVSDTDVSEVSWTDNGTFNLSEGYTPQTDTSDDLDRPSEEVFSRDLSDFPSLENGMGTNDEDELSLGLPTELKRKKEQLDSGHRPSKETQSAAGLTLPLNSDQTFHLMSNLAGDVITAAVTAAIKDQLEGVQQALSQAAPIPEEDTDTEEGDDFELLDQSELDQIESELGLTQDQEAEAQQNKKSSGFLSNLLGGH
# Variants of: B1
# Details: with MAP1LC3A
row,effect of a mutation on the interaction,Variant
1,disrupting interaction strength,MASPAPPEHAEEGCPAPAAEEQAPPSPPPPQASPAERQQQEEEAQEAGAAEGAGLQVEEAAGRAAAAVTWLLGEPVLWLGCRADELLSWKRPLRSLLGFVAANLLFWFLALTPWRVYHLISVMILGRVIMQIIKDMVLSRTRGAQLWRSLSESWEVINSKPDERPRLSHCIAESWMNFSIFLQEMSLFKQQSPGKFCLLVCSVCTFFTILGSYIPGVILSYLLLLCAFLCPLFKCNDIGQKIYSKIKSVLLKLDFGIGEYINQKKRERSEADKEKSHKDDSELDFSALCPKISLTVAAKELSVSDTDVSEVSWTDNGTFNLSEGYTPQTDTSDDLDRPSEEVFSRDLSDFPSLENGMGTNDEDELSLGLPTELKRKKEQLDSGHRPSKETQSAAGLTLPLNSDQTFHLMSNLAGDVITAAVTAAIKDQLEGVQQALSQAAPIPEEDTDTEEGAAAAAADQSELDQIESELGLTQDQEAEAQQNKKSSGFLSNLLGGH [D453A;D454A;F455A;E456A;L457A;L458A]
